Source: US10253323B2, “Chloroplast transit peptides” (priority 2015, dated 2019)
“Also recorded” adds a separate entry of the source.

B1: TraP11: chimeric chloroplast transit peptide, SEQ ID NO:2; N-terminus Glycine max, C-terminus Brassica napus; tested fused to YFP (pDAB101980) (protein)
chain: MAQVSRVHNLAQSTQIFGHSSNSNKLKSVNSVSLKTHQPRASSWGLKKSGTMLNGSVIRPVKVTASVS
modifications: TraP11
B2: Cry2Aa without a TraP: Cry2Aa protein expressed in Arabidopsis from control plasmid without a chloroplast transit peptide sequence upstream of the cry2Aa gene (protein, UniProt P0A377 1-633, looked up)
Pesticidal crystal protein …: MNNVLNSGRTTICDAYNVVAHDPFSFEHKSLDTIQKEWMEWKRTDHSLYVAPVVGTVSSFLLKKVGSLIGKRILSELWGIIFPSGSTNLMQDILRETEQFLNQRLNTDTLARVNAELIGLQANIREFNQQVDNFLNPTQNPVPLSITSSVNTMQQLFLNRLPQFQIQGYQLLLLPLFAQAANMHLSFIRDVILNADEWGISAATLRTYRDYLRNYTRDYSNYCINTYQTAFRGLNTRLHDMLEFRTYMFLNVFEYVSIWSLFKYQSLMVSSGANLYASGSGPQQTQSFTAQNWPFLYSLFQVNSNYILSGISGTRLSITFPNIGGLPGSTTTHSLNSARVNYSGGVSSGLIGATNLNHNFNCSTVLPPLSTPFVRSWLDSGTDREGVATSTNWQTESFQTTLSLRCGAFSARGNSNYFPDYFIRNISGVPLVIRNEDLTRPLHYNQIRNIESPSGTPGGARAYLVSVHNRKNNIYAANENGTMIHLAPEDYTGFTISPIHATQVNNQTRTFISEKFGNQGDSLRFEQSNTTARYTLRGNGNSYNLYLRVSSIGNSTIRVTINGRVYTVSNVNTTTNNDGVNDNGARFSDINIGNIVASDNTNVTLDINVTLNSGTPFDLMNIMFVPTNLPPLY

Columns and labels:
[1] = system: chloroplasts of the tobacco leaf tissues; experiment: Tobacco transient assay, confocal microscopy of TraP-YFP/GFP; assay type: cell-based, Nicotiana tabacum; settings: TraP-YFP or TraP-GFP fusion, Agrobacterium-infiltrated tobacco leaf tissue
Text: The above described chimeric chloroplast transit peptide sequences were initially tested via a transient in planta assay. Polynucleotide sequences which encode the TraP10 (SEQ ID NO:9), TraP11 (SEQ ID NO:10), TraP17 (SEQ ID NO:11), TraP18 (SEQ ID NO:12), TraP19 (SEQ ID NO:13), TraP26 (SEQ ID NO:14), TraP27 (SEQ ID NO:15), and TraP28 (SEQ ID NO:16), chimeric chloroplast transit peptide sequences were synthesized. A linker sequence (SEQ ID NO:17) was incorporated between the TraP sequence and the yfp coding sequence of TraP10 and TraP11. The resulting constructs contained two plant transcription units (PTU). The first PTU was comprised of the Arabidopsis thaliana Ubiquitin 10 promoter (AtUbi10 promoter; Callis, et al., (1990) J. Biol. Chem., 265: 12486-12493), TraP-yellow fluorescent protein fusion gene (TraP-YFP; US Patent App. 2007/0298412) or the TraP-green fluorescent protein fusion gene (TraP-GFP; Sheen et al., (1995) Plant J., 8(5): 777-84), and Agrobacterium tumefaciens ORF 23 3′ untranslated region (AtuORF23 3′UTR; U.S. Pat. No. 5,428,147). The second PTU was comprised of the Cassava Vein Mosaic Virus promoter (CsVMV promoter; Verdaguer et al., (1996) Plant Molecular Biology, 31: 1129-1139), phosphinothricin acetyl transferase (PAT; Wohlleben et al., (1988) Gene, 70: 25-37) or DSM-II (International Patent App. 2008070845), and Agrobacterium tumefaciens ORF 1 3′ untranslated region (AtuORF1 3′UTR; Huang et al., (1990) J. Bacteriol., 172: 1814-1822). Construct pDAB101979 contains the TraP10 chimeric chloroplast transit peptide (FIG. 3). Construct pDAB101980 contains the TraP11 chimeric chloroplast transit peptide (FIG. 4). Construct pDAB107634 contains the TraP17 chimeric chloroplast transit peptide (FIG. 5). Construct pDAB107635 contains the TraP18 chimeric chloroplast transit peptide (FIG. 6). Construct pDAB107636 contains the TraP19 chimeric chloroplast transit peptide (FIG. 7). Construct pDAB109847 contains the TraP26 chimeric chloroplast transit peptide (FIG. 8). Construct pDAB109848 contains the TraP27 chimeric chloroplast transit peptide (FIG. 9). Construct pDAB109849 contains the TraP28 chimeric chloroplast transit peptide (FIG. 10). […] The constructs were confirmed via restriction enzyme digestion and sequencing. Finally, the constructs were transformed into Agrobacterium tumefaciens and stored as glycerol stocks.
From an Agrobacterium glycerol stock, a loop full of frozen culture was inoculated into 2 ml of Yeast-extract Peptone Dextrose (100 μg/ml spectinomycin) in a 14 ml sterile tube. The inoculated media was incubated at 28° C. overnight with shaking at 200 rpm. The following day about 100 μl of the culture was used to inoculate 25 ml of YPD (100 μg/ml spectinomycin) in a 125 ml sterile tri-baffled flask, and incubated overnight at 28° C. overnight with shaking at 200 rpm. The following day the cultures were diluted to an OD600 of 0.5 in sterile ddH2O (pH 8.0). The diluted Agrobacterium strain was mixed with a second Agrobacterium strain containing the P19 helper protein at a ratio of 1:1. The culture were used for tobacco leaf infiltration via the Voinnet method. Voinnet O, Rivas S, Mestre P, and Baulcombe D, (2003) An enhanced transient expression system in plants based on suppression of gene silencing by the p19 protein of tomato bushy stunt virus. The Plant Journal, 33: 949-956. Infiltrated tobacco plants were placed in a Conviron™ set at 16 hr of light at 24° C. for at least three days until being assayed.
Agrobacterium-infiltrated tobacco leaves were severed from the plant, and placed into a petri-dish with water to prevent dehydration. The infiltrated tobacco leaves were observed under blue light excitation with long-pass filter glasses held in place using a Dark Reader Hand Lamp™ (Clare Chemical Research Co.; Dolores, Colo.) to identify undamaged areas of the leaf that were successfully expressing the YFP or GFP reporter proteins. […]

[2] = system: infiltrated tobacco cells; experiment: Western blot of infiltrated tobacco plants; assay type: cell-based, Nicotiana tabacum; settings: infiltrated tobacco leaf tissue
Method: Samples of the infiltrated tobacco plants were assayed via Western blotting. Leaf punches were collected and subjected to bead-milling. About 100-200 mg of leaf material was mixed with 2 BBs (Daisy; Rogers, Ark.) and […] of PBST for 3 minutes in a Kleco™ bead mill. The samples were then spun down in a centrifuge at 14,000× g at 4° C. The supernatant was removed and either analyzed directly via Western blot or immunoprecipitated. The immunoprecipitations were performed using the Pierce Direct IP Kit™ (Thermo Scientific; Rockford, Ill.) following the manufacturer's protocol. Approximately, 50 μg of anti-YFP or anti-GFP was bound to the resin. The samples were incubated with the resin overnight at 4° C. Next, the samples were washed and eluted the following morning and prepped for analysis by combining equal volumes of 2×8M Urea sample buffer and then boiling the samples for 5 minutes. The boiled samples were run on a 4-12% SDS-Bis Tris gel in MOPS buffer for 40 minutes. The gel was then blotted using the Invitrogen iBlot™ (Life Technologies; Carlsbad, Calif.) following the manufacturer's protocol. The blotted membrane was blocked for 10 minutes using 5% non-fat dry milk in PBS-Tween® solution. The membrane was probed with the primary antibody (monoclonal anti-GFP or anti-YFP in rabbit) used at a 1:1000 dilution in the 5% non-fat dry milk in PBS-Tween® solution for 1 hour. Next, the membrane was rinsed three times for five minutes with PBS-Tween® to remove all unbound primary antibody. The membrane was probed with a secondary monoclonal anti-rabbit in goat antibody (Life Technologies) used at a 1:1000 dilution, for 60 minutes. The membrane was washed as previously described and developed by adding Themo BCIP/NBT™ substrate. The colormetric substrate was allowed to develop for 5-10 minutes and then the blots were rinsed with water before being dried.

soybean looper (SBL) = experiment: Insect bioassay of Cry2Aa Arabidopsis events, soybean looper; assay type: in vivo
Method: (§1) The effectiveness of the TraP11 chimeric chloroplast transit peptides on Cry2Aa protein expression in Arabidopsis thaliana was assessed. Transgenic Arabidopsis plants which contained TraP11 chimeric chloroplast transit peptides fused to the Cry2Aa protein were assayed for insect tolerance to soybean looper (SBL) and tobacco budworm (TBW).
(§2) A small aliquot of T2 seed (approx. 100-200 seeds) for each event were suspended in 40 mls of 0.1% agarose solution and cold stratified at 4° C. for 24 hrs. The stratified seeds were then sown by pipetting 10 ml of seed onto the surface of four flats in a propagation flat. The flats were filled with Sunshine #5 soil Media™ (Sun Gro; Bellevue, Wash.) and lightly covered with fine vermiculite. The trays were saturated in Hoagland's fertilizer prior to sowing and as needed afterward. After sowing, humidity domes were used to cover the trays and they were then placed into a Conviron™ growth chamber set at 24° C. with a 16 hr photo period. Incandescent and fluorescent lights provided a light level of 200 PAR. After 5 days the seeds germinated and the domes were removed. The first herbicide selection of transformants was on day 6 and the second on day 10. Liberty™ herbicide (a.i. glufosinate-ammonium) was applied using a DeVilbiss atomizer hand sprayer at a rate of 200 g ai/ha to remove nulls. Roughly 25% of the plants were nulls as expected. A row of wild type checks were also included in the selection and they had 100% mortality after two herbicide applications. At 14 days the plants were ready for transplanting. […] The flats were presoaked with Hoagland's fertilizer prior to transplant and afterward as needed. The transplants were propagated in a non-air conditioned green house set at 25° C. with 14 hours of supplemental light. Silique development was inhibited by trimming with scissors and thus created more plant tissue for testing. Plants were ready for DNA sampling at 16-18 days and ready for bio-assay at about 23 days. The putative transgenic plants were screened using molecular confirmation assays and identified events were advanced for protein analysis and bioassay results.
(§3) Both sets of T1 Arabidopsis events were tested in insect bioassay experiments. […] There was a correlation between protein expression and leaf protection against both SBL and TBW for Arabidopsis events expressing Cry2Aa without a TraP (r^2=0.49 [SBL], 0.23 [TBW]), and for Arabidopsis events expressing Cry2Aa with TraP11 (r^2=0.75 [SBL], 0.17 [TBW]). Resultantly, an increase in protein expression caused significant protection against leaf damage (Pr<0.05).

tobacco budworm (TBW) = experiment: Insect bioassay of Cry2Aa Arabidopsis events, tobacco budworm; assay type: in vivo
Method: as §1, §2, §3

Row | Molecule | translocation of YFP or GFP fluorescent protein into chloroplasts [1] | translocation of YFP or GFP fluorescent protein into chloroplasts ([1]; listed as TraP11-YFP) | TraP processed and cleaved from the YFP or GFP protein [2] | protection of Arabidopsis plants from SBL damage (soybean looper (SBL)) | protection of Arabidopsis plants from TBW damage (tobacco budworm (TBW)) | minimum Cry2Aa protein expression for lower than 20% leaf damage (soybean looper (SBL); Arabidopsis events) | minimum Cry2Aa protein expression for lower than 30% leaf damage (soybean looper (SBL); Arabidopsis events) | Cry2Aa protein concentration resulting in less than 30% leaf damage (tobacco budworm (TBW); Arabidopsis events) [ng/cm^2] | Cry2Aa protein level at the 20% leaf damage cut-off point (tobacco budworm (TBW); Arabidopsis events)
1 | B1 | accumulated within the chloroplasts; also recorded: successfully targeted YFP to tobacco chloroplasts | translocated into the chloroplasts | processed and cleaved from the YFP or GFP protein | provided insect tolerance | provided insect tolerance | – | – | – | –
2 | B2 | – | – | – | protected from SBL damage | protected from TBW damage | 2.0-2.5 ng/cm^2 | about 1.5 ng/cm^2 | ~1.5 | 2.0-2.5 ng/cm^2
